Patent US20250152742A1, “COMPOSITIONS AND METHODS FOR NEUROLOGICAL DISEASES” (Trames Bio, Inc., priority 2022, published 2025)
Numbering of substitutions follows the chain as printed. Names and notes keep the numbering of the source.

System: engineered chimeric receptor SEQ ID NO: 33 and its mutants (human α7-nAChR ligand binding domain / human GlyRα1 ion pore domain) in Lenti-X 293T cells
Assay: YFP fluorescence quenching anion reporter plate reader assay (percent quench, EC50)
Format: cell-based
Details: for YFP fluorescence quenching using CNL001 (percent quench): receptor named in row; for YFP fluorescence quenching using Varenicline, 3 nM var: ligand Varenicline 3 nM; for YFP fluorescence quenching using Varenicline, 30 nM var: ligand Varenicline 30 nM; for YFP fluorescence quenching using Varenicline, 300 nM var: ligand Varenicline 300 nM; for YFP fluorescence quenching using Varenicline, 500 nM var: ligand Varenicline 500 nM; for YFP fluorescence quenching using Varenicline, 1 uM var: ligand Varenicline 1 uM
In short: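 Lenti-X 293T cells co-expressing an anion-quenchable YFP were transiently transfected with receptor DNA, then ligand was added in NaI-substituted buffer (pH 7.2) after 30 min at 37 °C. Fluorescence was read about 2 min; percent quench = mean of last 10 s over 15 s pre-ligand baseline.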

[1] = 1 nM CNL001, first column so headed
[2] = 1 nM CNL001, second column so headed
[3] = 1 nM brd (TC-5619/Bradanicline)
[4] = 3 nM brd (TC-5619/Bradanicline)
[5] = 10 nM CNL001, first column so headed
[6] = 10 nM CNL001, second column so headed
[7] = 10 nM brd (TC-5619/Bradanicline)
[8] = 30 nM brd (TC-5619/Bradanicline)
[9] = 50 nM CNL001, first column so headed
[10] = 50 nM CNL001, second column so headed
[11] = 100 nM CNL001, first column so headed
[12] = 100 nM CNL001, second column so headed
[13] = 300 nM brd (TC-5619/Bradanicline)
[14] = 1 uM CNL001, first column so headed
[15] = 1 uM CNL001, second column so headed

B1: CODA1039: engineered receptor: Y115E, Y210W in SEQ ID NO: 33 (protein)
chain: MRCSPGGVWLALAASLLHVSLQGEFQRKLYKELVKNYNPLERPVANDSQPLTVYFSLSLLQIMDVDEKNQVLTTNIWLQMSWTDHYLQWNVSEYPGVKTVRFPDGQIWKPDILLENSADERFDATFHTNVLVNSSGHCQYLPPGIFKSSCPMDLKNFPMDVQTCKLKFGSWSYGGWSLDLQMQEADISGYIPNGEWDLVGIPGKRSERFWECCKEPYPDVTFTVTMRRRMGYYLIQMYIPSLLIVILSWISFWINMDAAPARVGLGITTVLTMTTQSSGSRASLPKVSYVKAIDIWMAVCLLFVFSALLEYAAVNFVSRQHKELLRFRRKRRHHKSPMLNLFQEDEAGEGRFNFSAYGMGPACLQAKDGISVKGANNSNTTNPPPAPSKSPEEMRKLFIQRAKKIDKISRIGFPMAFLIFNMFYWIIYKIVRREDVHNQ
modifications: synthetic sequence of chimeric LGIC
YFP fluorescence quenching using CNL001 (percent quench) [1]: −1.12%
YFP fluorescence quenching using CNL001 (percent quench) [2]: −3.941%
YFP fluorescence quenching using TC-5619/Bradanicline (percent quench) [3]: −5.55%
YFP fluorescence quenching using TC-5619/Bradanicline (percent quench) [4]: 6.78%
YFP fluorescence quenching using CNL001 (percent quench) [5]: 6.275%
YFP fluorescence quenching using CNL001 (percent quench) [6]: 11.943%
YFP fluorescence quenching using TC-5619/Bradanicline (percent quench) [7]: −2.7%
YFP fluorescence quenching using TC-6683 (percent quench) (30 nM TC-6683): −1.608%
YFP fluorescence quenching using TC-5619/Bradanicline (percent quench) [8]: 34.43%
YFP fluorescence quenching using CNL001 (percent quench) [9]: 12.949%
YFP fluorescence quenching using CNL001 (percent quench) [10]: 18.635%
YFP fluorescence quenching using ABT-126 (percent quench) (50 nM abt (ABT-126)): −17.32%
YFP fluorescence quenching using CNL001 (percent quench) [11]: 17.576%
YFP fluorescence quenching using CNL001 (percent quench) [12]: 18.319%
YFP fluorescence quenching (percent quench) (100 nM CNL002): 21.85%
YFP fluorescence quenching using ABT-126 (percent quench) (100 nM abt (ABT-126)): −13.93%
YFP fluorescence quenching using AZD-0328 (percent quench) (100 nM azd0328): −10.45%
YFP fluorescence quenching using TC-6683 (percent quench) (300 nM TC-6683): −3.491%
YFP fluorescence quenching using ABT-126 (percent quench) (300 nM abt (ABT-126)): 9.9%
YFP fluorescence quenching using AZD-0328 (percent quench) (300 nM azd0328): −13%
YFP fluorescence quenching using TC-5619/Bradanicline (percent quench) [13]: 70.05%
YFP fluorescence quenching using ABT-126 (percent quench) (500 nM abt (ABT-126)): 36.97%
YFP fluorescence quenching using CNL001 (percent quench) [14]: 19.329%
YFP fluorescence quenching using CNL001 (percent quench) [15]: 20.672%
YFP fluorescence quenching (percent quench) (1 uM CNL002): 47.37%
YFP fluorescence quenching using ABT-126 (percent quench) (1 uM abt (ABT-126)): 48.37%
YFP fluorescence quenching using TC-6683 (percent quench) (3 uM TC-6683): −6.153%
YFP fluorescence quenching using ABT-126 (percent quench) (3 uM abt (ABT-126)): 50.5%
YFP fluorescence quenching using ABT-126 (percent quench) (10 uM abt (ABT-126)): 58.13%
YFP fluorescence quenching (percent quench) (10 uM ach (acetylcholine)): −2.97%
YFP fluorescence quenching (percent quench) (30 uM CNL002): 59.97%
YFP fluorescence quenching using TC-6683 (percent quench) (30 uM TC-6683): −9.263%
YFP fluorescence quenching using ABT-126 (percent quench) (30 uM abt (ABT-126)): 64.1%
YFP fluorescence quenching using AZD-0328 (percent quench) (30 uM azd0328): 30.76%
YFP fluorescence quenching using ABT-126 (percent quench) (50 uM abt (ABT-126)): 66.67%
YFP fluorescence quenching (percent quench) (50 uM ach (acetylcholine)): −3.94%
YFP fluorescence quenching using TC-6683 (percent quench) (100 uM TC-6683): −9.19%
YFP fluorescence quenching using ABT-126 (percent quench) (100 uM abt (ABT-126)): 68.63%
YFP fluorescence quenching (percent quench) (100 uM ach (acetylcholine)): 0.35%
YFP fluorescence quenching (percent quench) (300 uM ach (acetylcholine)): −4.13%
YFP fluorescence quenching (percent quench) (500 uM ach (acetylcholine)): −5.18%
YFP fluorescence quenching (percent quench) (1 mM ach (acetylcholine)): 1.21%
YFP fluorescence quenching (percent quench) (3 mM ach (acetylcholine)): 26.69%
YFP fluorescence quenching using Facinicline, 30 nM fac (ligand Facinicline 30 nM): −13.46
YFP fluorescence quenching using Facinicline, 300 nM fac (ligand Facinicline 300 nM): 5.43
YFP fluorescence quenching using Facinicline, 30 uM fac (ligand Facinicline 30 uM): 49.06
YFP fluorescence quenching using TC-6987, 1 uM tc6987 (ligand TC-6987 1 uM): 7.26
YFP fluorescence quenching using TC-6987, 10 uM tc6987 (ligand TC-6987 10 uM): 11
YFP fluorescence quenching using TC-6987, 500 uM tc6987 (ligand TC-6987 500 uM): 7.97
YFP fluorescence quenching using Varenicline, 3 nM var (first column): −10.926
YFP fluorescence quenching using Varenicline, 3 nM var (second column): −7.395
YFP fluorescence quenching using Varenicline, 30 nM var (first column): −5.661
YFP fluorescence quenching using Varenicline, 30 nM var (second column): −1.244
YFP fluorescence quenching using Varenicline, 300 nM var (first column): −4.555
YFP fluorescence quenching using Varenicline, 300 nM var (second column): 1.081
YFP fluorescence quenching using Varenicline, 500 nM var (first column): 9.172
YFP fluorescence quenching using Varenicline, 500 nM var (second column): 12.561
YFP fluorescence quenching using Varenicline, 1 uM var (first column): 7.139
YFP fluorescence quenching using Varenicline, 1 uM var (second column): 12.664

B2: CODA1045: engineered receptor: R101W, Y210V in SEQ ID NO: 33 (protein)
chain: B1 chain with R101W, E115Y, W210V
modifications: synthetic sequence of chimeric LGIC
YFP fluorescence quenching using CNL001 (percent quench) [1]: 0.804%
YFP fluorescence quenching using CNL001 (percent quench) [2]: 11.275%
YFP fluorescence quenching using TC-5619/Bradanicline (percent quench) [3]: −1.431%
YFP fluorescence quenching using TC-5619/Bradanicline (percent quench) [4]: −14.993%
YFP fluorescence quenching using CNL001 (percent quench) [5]: 15.843%
YFP fluorescence quenching using CNL001 (percent quench) [6]: 16.619%
YFP fluorescence quenching using TC-5619/Bradanicline (percent quench) [7]: −5.52%
YFP fluorescence quenching using TC-6683 (percent quench) (30 nM TC-6683): 1.735%
YFP fluorescence quenching using TC-5619/Bradanicline (percent quench) [8]: 15.49%
YFP fluorescence quenching using CNL001 (percent quench) [9]: 15.205%
YFP fluorescence quenching using CNL001 (percent quench) [10]: 18.771%
YFP fluorescence quenching using ABT-126 (percent quench) (50 nM abt (ABT-126)): −24.16%
YFP fluorescence quenching using CNL001 (percent quench) [11]: 9.332%
YFP fluorescence quenching using CNL001 (percent quench) [12]: 18.218%
YFP fluorescence quenching using ABT-126 (percent quench) (100 nM abt (ABT-126)): −24.7%
YFP fluorescence quenching using TC-5619/Bradanicline (percent quench) (100 nM brd (TC-5619/Bradanicline)): 72.105%
YFP fluorescence quenching using TC-6683 (percent quench) (300 nM TC-6683): 0.642%
YFP fluorescence quenching using ABT-126 (percent quench) (300 nM abt (ABT-126)): −16.09%
YFP fluorescence quenching using TC-5619/Bradanicline (percent quench) [13]: 71.411%
YFP fluorescence quenching using CNL001 (percent quench) [14]: 35.294%
YFP fluorescence quenching using CNL001 (percent quench) [15]: 36.542%
YFP fluorescence quenching using ABT-126 (percent quench) (1 uM abt (ABT-126)): −11.61%
YFP fluorescence quenching using TC-6683 (percent quench) (3 uM TC-6683): 2.403%
YFP fluorescence quenching (percent quench) (10 uM ach (acetylcholine)): −2.52%
YFP fluorescence quenching using TC-6683 (percent quench) (30 uM TC-6683): 6.006%
YFP fluorescence quenching using TC-6683 (percent quench) (100 uM TC-6683): −4.277%
YFP fluorescence quenching (percent quench) (100 uM ach (acetylcholine)): −11.98%
YFP fluorescence quenching (percent quench) (300 uM ach (acetylcholine)): −16.71%
YFP fluorescence quenching (percent quench) (500 uM ach (acetylcholine)): −12.87%
YFP fluorescence quenching (percent quench) (1 mM ach (acetylcholine)): −14.41%
YFP fluorescence quenching (percent quench) (3 mM ach (acetylcholine)): −7.4%
YFP fluorescence quenching (percent quench) (10 mM ach (acetylcholine)): −1.5%
YFP fluorescence quenching using Varenicline, 3 nM var (first column): 6.745
YFP fluorescence quenching using Varenicline, 3 nM var (second column): 8.397
YFP fluorescence quenching using Varenicline, 30 nM var (first column): 14.1
YFP fluorescence quenching using Varenicline, 30 nM var (second column): 19.095
YFP fluorescence quenching using Varenicline, 300 nM var (first column): 16.83
YFP fluorescence quenching using Varenicline, 300 nM var (second column): 21.507
YFP fluorescence quenching using Varenicline, 500 nM var (first column): 21.586
YFP fluorescence quenching using Varenicline, 500 nM var (second column): 23.131
YFP fluorescence quenching using Varenicline, 1 uM var (first column): 31.591
YFP fluorescence quenching using Varenicline, 1 uM var (second column): 26.479
